How the values were obtained:
[1] = tested on: T1, wild type Penicillium oxalicum glucoamylase
T1 sequence: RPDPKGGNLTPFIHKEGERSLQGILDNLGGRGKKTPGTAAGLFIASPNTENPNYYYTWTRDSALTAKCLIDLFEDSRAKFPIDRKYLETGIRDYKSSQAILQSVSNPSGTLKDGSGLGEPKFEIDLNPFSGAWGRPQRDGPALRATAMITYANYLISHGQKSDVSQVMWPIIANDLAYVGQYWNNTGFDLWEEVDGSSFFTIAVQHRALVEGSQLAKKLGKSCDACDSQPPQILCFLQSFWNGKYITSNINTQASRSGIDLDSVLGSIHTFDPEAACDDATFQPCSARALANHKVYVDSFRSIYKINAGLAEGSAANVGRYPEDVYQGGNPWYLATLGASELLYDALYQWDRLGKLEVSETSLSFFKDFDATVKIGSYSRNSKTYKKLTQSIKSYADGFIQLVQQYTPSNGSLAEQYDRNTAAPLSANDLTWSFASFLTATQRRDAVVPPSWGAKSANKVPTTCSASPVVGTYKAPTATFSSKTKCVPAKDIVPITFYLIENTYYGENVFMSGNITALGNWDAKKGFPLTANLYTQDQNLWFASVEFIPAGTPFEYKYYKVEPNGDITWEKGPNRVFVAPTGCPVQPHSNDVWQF

[2] = biological target: Penicillium oxalicum glucoamylase variant PE001 (SEQ ID NO: 14 + K79V substitution) (Penicillium oxalicum); experiment: cell-based or functional assay
[3] = biological target: wild type Penicillium oxalicum glucoamylase (Penicillium oxalicum); experiment: cell-based or functional assay

| intact glucoamylase (ca. 70 kDa) on SDS-PAGE after overnight protease treatment at 4 °C [2] | intact glucoamylase (ca. 70 kDa) on SDS-PAGE after overnight protease treatment at 32 °C [2] | intact glucoamylase (ca. 70 kDa) on SDS-PAGE after overnight protease treatment at 4 °C [3] | intact glucoamylase (ca. 70 kDa) on SDS-PAGE after overnight protease treatment at 32 °C [3] | Substance | cleaved glucoamylase (ca. 60 kDa) on SDS-PAGE after overnight protease treatment at 32 °C [1] | cleaved glucoamylase (ca. 60 kDa) on SDS-PAGE after overnight protease treatment at 4 °C [1] |
| --- | --- | --- | --- | --- | --- | --- |
|  |  |  |  | aspergillopepsin I | 10% |  |
| 100% | 100% | 40% | 10% | aorsin (enzyme) |  |  |
|  |  |  |  | aorsin | 90% | 60% |
| 100% | 100% | 100% | 90% | aspergillopepsin I (enzyme) |  |  |

— patent US20170166934A1
